Like-named read-outs stand apart in the source and are kept apart here.
Tests used:
Assay type in all cases: biochemical
[1] = 4-MUL assay with and without cellobiose (Example 1)
[2] = Saccharification assay (bagasse assay) with and without β-glucosidase (Example 1); details: T. reesei CBH I variants; activity without β-glucosidase (BG) relative to with BG
Description: This assay measures the activity of CBH I on bagasse, a lignocellulosic substrate. Reactions were run in 10 ml vials with 5% dilute acid pretreated bagasse (250 mg solids per 5 ml reaction). Each reaction contained 4 mg CBH I enzyme/g solids, 200 mM MES pH 6, kanamycin, and chloramphenicol. Reactions were incubated at 35° C. in hybridization incubators (Robbins Scientific), rotating at 20 RPM. Time points were taken by transferring a sample of homogenous slurry (150 μl) into a 96-well deep well plate and quenching the reaction with stop buffer (450 μl of 500 mM sodium carbonate, pH 10). Time point measurements were taken every 24 hours for 72 hours.
(§1) Tolerance to cellobiose (or inhibition caused by cellobiose) was tested in two ways in the CBH I assays. A direct-dose tolerance method can be applied to all of the CBH I assays (i.e., 4-MUL, PASC, and/or bagasse assays), and entails the exogenous addition of a known amount of cellobiose into assay mixtures. A different indirect method entails the addition of an excess amount of β-glucosidase (BG) to PASC and bagasse assays (typically, 1 mg β-glucosidase/g solids loaded). BG will enzymatically hydrolyze the cellobiose generated during these assays; therefore, CBH I activity in the presence of BG can be taken as a measure of activity in the absence of cellobiose. Furthermore, when activity in the presence and absence of BG are similar, this indicates tolerance to cellobiose.

[3] = 4-MUL cellobiose tolerance/inhibition assay, dose-response IC50 (Example 2)
Outline: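 IC50 reflects cellobiose concentration halving activity, fitted by four-parameter dose-response with zero activity fixed at knockout-strain background. Assays used 4-MUL (0.5 mM) with enzyme at 5 μg/mL or less, pH 6 MES, 25 mM gluconolactone blocking BG, cellobiose up to 100 mM; 4-MU fluorescence read.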

[4] = PASC assay, cellobiose dose-response (Example 1); details: FIG. 3
Description: This assay measures the activity of CBH I using PASC as the substrate. During the assay, the concentration of PASC is monitored by a fluorescent signal derived from calcofluor binding to PASC (ex/em 365/440 nm). The assay is initiated by mixing enzyme (15 μl) and reaction buffer (85 μl of 0.2% PASC, 200 mM MES, pH 6), and then incubating at 35° C. while shaking at 225 RPM. After 2 hours, one reaction volume of calcofluor stop solution (100 μg/ml in 500 mM glycine pH 10) is added and fluorescence read-outs obtained (ex/em 365/440 nm).
as §1

[5] = Secondary screening, CBH I levels normalized to 5 μg/mL, cellobiose range 0.00085-100 mM, read-out: IC50
[6] = secondary screening, CBH I levels normalized to 5 μg/mL, cellobiose range 0.0001-100 mM, read-out: Average IC50

| IC50 of cellobiose (PASC assay) [4] [µg/mL] | Molecule | Tolerance to 250 mg/L cellobiose % Activity in 4-MUL Assay (+/−Cellobiose) ([1]; T. reesei CBH I variants, activity with 250 mg/L cellobiose relative to without cellobiose) [%] | Tolerance to cellobiose accumulation % Activity in Bagasse Assay (+/−BG) [2] [%] | IC50 [3, 5] [µM] | IC50 [3, 6] [µM] | cellobiose concentration at which inhibition starts (PASC assay) [4] | % activity remaining in 4-MUL assay in the presence of cellobiose ([1]; T. reesei CBH I and R268/R411 variants, 250 mg/L cellobiose) [%] | IC50 ([3]; averaged IC50 values from Tables 8-11, read-out: measured IC50 of cellobiose (merged values)) [µM] |
| --- | --- | --- | --- | --- | --- | --- | --- | --- |
| – | R268A/R411K: T. reesei CBH I with R268A and R411K substitutions (protein, UniProt P62694 18-513, looked up, variant R268A R411K) Exoglucanase 1: QSACTLQSETHPPLTWQKCSSGGTCTQQTGSVVIDANWRWTHATNSSTNCYDGNTWSSTLCPDNETCAKNCCLDGAAYASTYGVTTSGNSLSIGFVTQSAQKNVGARLYLMASDTTYQEFTLLGNEFSFDVDVSQLPCGLNGALYFVSMDADGGVSKYPTNTAGAKYGTGYCDSQCPRDLKFINGQANVEGWEPSSNNANTGIGGHGSCCSEMDIWEANSISEALTPHPCTTVGQEICEGDGCGGTYSDNAYGGTCDPDGCDWNPYRLGNTSFYGPGSSFTLDTTKKLTVVTQFETSGAINRYYVQNGVTFQQPNAELGSYSGNELNDDYCTAEEAEFGGSSFSDKGGLTQFKKATSGGMVLVMSLWDDYYANMLWLDSTYPTNETSSTPGAVKGSCSTSSGVPAQVESQSPNAKVTFSNIKFGPIGSTGNPSGGNPPGGNRGTTTTRRPATTTGSSPGPTQSHYGQCGGIGYSGPTVCASGTTCQVLNPYYSQCL | 97 | 94 | – | – | – | – | – |
| – | R411K: T. reesei CBH I with an R411K substitution (protein, UniProt P62694 18-513, looked up, variant R411K) Exoglucanase 1: QSACTLQSETHPPLTWQKCSSGGTCTQQTGSVVIDANWRWTHATNSSTNCYDGNTWSSTLCPDNETCAKNCCLDGAAYASTYGVTTSGNSLSIGFVTQSAQKNVGARLYLMASDTTYQEFTLLGNEFSFDVDVSQLPCGLNGALYFVSMDADGGVSKYPTNTAGAKYGTGYCDSQCPRDLKFINGQANVEGWEPSSNNANTGIGGHGSCCSEMDIWEANSISEALTPHPCTTVGQEICEGDGCGGTYSDNRYGGTCDPDGCDWNPYRLGNTSFYGPGSSFTLDTTKKLTVVTQFETSGAINRYYVQNGVTFQQPNAELGSYSGNELNDDYCTAEEAEFGGSSFSDKGGLTQFKKATSGGMVLVMSLWDDYYANMLWLDSTYPTNETSSTPGAVKGSCSTSSGVPAQVESQSPNAKVTFSNIKFGPIGSTGNPSGGNPPGGNRGTTTTRRPATTTGSSPGPTQSHYGQCGGIGYSGPTVCASGTTCQVLNPYYSQCL | – | 89 | 3060 | 2080 | – | – | – |
| 3000 | wild type T. reesei CBH I: wild type T. reesei CBH I (SEQ ID NO:2) (protein, listed as Trichoderma reesei) MYRKLAVISAFLATARAQSACTLQSETHPPLTWQKCSSGGTCTQQTGSVVIDANWRWTHATNSSTNCYDGNTWSSTLCPDNETCAKNCCLDGAAYASTYGVTTSGNSLSIGFVTQSAQKNVGARLYLMASDTTYQEFTLLGNEFSFDVDVSQLPCGLNGALYFVSMDADGGVSKYPTNTAGAKYGTGYCDSQCPRDLKFINGQANVEGWEPSSNNANTGIGGHGSCCSEMDIWEANSISEALTPHPCTTVGQEICEGDGCGGTYSDNRYGGTCDPDGCDWNPYRLGNTSFYGPGSSFTLDTTKKLTVVTQFETSGAINRYYVQNGVTFQQPNAELGSYSGNELNDDYCTAEEAEFGGSSFSDKGGLTQFKKATSGGMVLVMSLWDDYYANMLWLDSTYPTNETSSTPGAVRGSCSTSSGVPAQVESQSPNAKVTFSNIKFGPIGSTGNPSGGNPPGGNPPGTTTTRRPATTTGSSPGPTQSHYGQCGGIGYSGPTVCASGTTCQVLNPYYSQCL | – | – | – | – | around 1 g/L | 23 | – |
| – | R268K: T. reesei CBH I with an R268K substitution (protein, listed as Trichoderma reesei) MYRKLAVISAFLATARAQSACTLQSETHPPLTWQKCSSGGTCTQQTGSVVIDANWRWTHATNSSTNCYDGNTWSSTLCPDNETCAKNCCLDGAAYASTYGVTTSGNSLSIGFVTQSAQKNVGARLYLMASDTTYQEFTLLGNEFSFDVDVSQLPCGLNGALYFVSMDADGGVSKYPTNTAGAKYGTGYCDSQCPRDLKFINGQANVEGWEPSSNNANTGIGGHGSCCSEMDIWEANSISEALTPHPCTTVGQEICEGDGCGGTYSDNKYGGTCDPDGCDWNPYRLGNTSFYGPGSSFTLDTTKKLTVVTQFETSGAINRYYVQNGVTFQQPNAELGSYSGNELNDDYCTAEEAEFGGSSFSDKGGLTQFKKATSGGMVLVMSLWDDYYANMLWLDSTYPTNETSSTPGAVRGSCSTSSGVPAQVESQSPNAKVTFSNIKFGPIGSTGNPSGGNPPGGNPPGTTTTRRPATTTGSSPGPTQSHYGQCGGIGYSGPTVCASGTTCQVLNPYYSQCL | – | 92 | 134 | 93 | – | – | – |
| – | 411A: CBH I variant with site 411 mutated to alanine (protein, listed as Trichoderma reesei) QSACTLQSETHPPLTWQKCSSGGTCTQQTGSVVIDANWRWTHATNSSTNCYDGNTWSSTLCPDNETCAKNCCLDGAAYASTYGVTTSGNSLSIGFVTQSAQKNVGARLYLMASDTTYQEFTLLGNEFSFDVDVSQLPCGLNGALYFVSMDADGGVSKYPTNTAGAKYGTGYCDSQCPRDLKFINGQANVEGWEPSSNNANTGIGGHGSCCSEMDIWEANSISEALTPHPCTTVGQEICEGDGCGGTYSDNRYGGTCDPDGCDWNPYRLGNTSFYGPGSSFTLDTTKKLTVVTQFETSGAINRYYVQNGVTFQQPNAELGSYSGNELNDDYCTAEEAEFGGSSFSDKGGLTQFKKATSGGMVLVMSLWDDYYANMLWLDSTYPTNETSSTPGAVAGSCSTSSGVPAQVESQSPNAKVTFSNIKFGPIGSTGNPSGGNPPGGNPPGTTTTRRPATTTGSSPGPTQSHYGQCGGIGYSGPTVCASGTTCQVLNPYYSQCL | – | 94 | 1060 | 918 | – | – | 1170 |
| – | R268A: T. reesei CBH I with an R268A substitution (protein, listed as Trichoderma reesei) QSACTLQSETHPPLTWQKCSSGGTCTQQTGSVVIDANWRWTHATNSSTNCYDGNTWSSTLCPDNETCAKNCCLDGAAYASTYGVTTSGNSLSIGFVTQSAQKNVGARLYLMASDTTYQEFTLLGNEFSFDVDVSQLPCGLNGALYFVSMDADGGVSKYPTNTAGAKYGTGYCDSQCPRDLKFINGQANVEGWEPSSNNANTGIGGHGSCCSEMDIWEANSISEALTPHPCTTVGQEICEGDGCGGTYSDNAYGGTCDPDGCDWNPYRLGNTSFYGPGSSFTLDTTKKLTVVTQFETSGAINRYYVQNGVTFQQPNAELGSYSGNELNDDYCTAEEAEFGGSSFSDKGGLTQFKKATSGGMVLVMSLWDDYYANMLWLDSTYPTNETSSTPGAVRGSCSTSSGVPAQVESQSPNAKVTFSNIKFGPIGSTGNPSGGNPPGGNPPGTTTTRRPATTTGSSPGPTQSHYGQCGGIGYSGPTVCASGTTCQVLNPYYSQCL | – | 86 | 574 | 423 | – | – | – |
